Measured values from patent publication EP4803540A1 (FNCTBiotech Inc., dated 2026).

Molecular target: T1, human CSF3 protein (human, UniProt P09919 31-207)
T1 construct: also called G-CSF; human colony-stimulating factor 3
T1 sequence: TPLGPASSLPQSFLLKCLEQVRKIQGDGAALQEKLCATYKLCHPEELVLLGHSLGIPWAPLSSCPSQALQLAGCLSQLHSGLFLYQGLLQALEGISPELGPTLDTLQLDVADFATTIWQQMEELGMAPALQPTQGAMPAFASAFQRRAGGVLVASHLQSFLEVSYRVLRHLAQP
Test: high-mass MALDI MS of a mixture of Y41 antibody and human CSF3 protein; complexes of one or two CSF3 with one Y41

- binding result: binds
B1: C41 (or Y41) (antibody, human IgG1, kappa, V domains shown)
VH: EMQLVQSGAEARKPGSSVKVSCKASGYTFTNYGISWLRQTPGQGLEWMGWINPNSGGTIYAQKFQGRVTMTRDTPITTAYMELSTLRSEDTAVYYCSRGSGGAVPFDVWGQGTMVTVSS
VL: DIQMTQSPFSLSASVGDRVTITCRASQTISNRLNWYQHKPGKAPKLFIYYASSLQSGVPSRFSGSGSGTDFALTISSLQPEDFATYYCQQGYSSPRTFGQGTKVEIKR
notes: Human IgG1; the CDR numbers printed for Y41 disagree between places; also called 007A06; CSA1241
